Data from article PMC3093317 (Molecular Biology of the Cell, 2011).

What was measured:
[1] = biological target: HA-tagged YadA-MA expressed in E. coli (Yersinia enterocolitica) (UniProt P0C2W0); experiment: SDS-PAGE of the SDS-stable oligomer with monomerization by boiling in urea
[2] = biological target: the molecule itself; experiment: as above

Molecule | stoichiometry N [1] | stoichiometry N [2]
HA-tagged YadA-MA expressed in E. coli (from UniProt P0C2W0 335-422) (domain or fragment) | 3 | 
HA-tagged YadA-MA-S417G, expressed in yeast (domain or fragment) FHQLDNRLDKLDTRVDKGLASSAALNSLFQPYGVGKVNFTAGVGGYRSSQALAIGSGYRVNESVALKAGVAYAGSSDVMYNAGFNIEW |  | 3
